Results on five molecules are retold here after publication doi:10.1101/2022.10.21.513107 (bioRxiv, 2022).

Residue numbers refer to the chain shown, from its start.

Test [1] addresses endogenous HPV16 E6 protein of SiHa cells (Human papillomavirus type 16, SiHa …, UniProt P03126). In words: immunostaining of cells or tissue.
The target of another test is His6MBP-4C/4S E6 (Human papillomavirus type 16, reference …, UniProt P03126, stabilised). In words: far-Western, overlay or dot blot.

B1: sdAb A37 (VHH)
VHH: QVKLEESGGGLVQAGGSLRLSCVASGSTFIITDMAWYRQAPGKQRELVAGITLRGGTNYADSVKGRFTISRDNVKNTVTLQMNSLKPEDTAVYYCNAKVAEWRNRPDYWGQGTQVTVSS
For the molecule B1, the binding result in test [1] is recorded as “binds”.

B2: sdAb C38 (VHH)
VHH: QVQLVESGGGVVQAGGSLRLSCAPSGNIFSINTMGWHRQAPGKQREFVARIRSSGQTNYADSVKGRFTISKDSAKDTVYLQMDNLQPEDSAVYYCTFNSGGWGVERKRRDYWGQGTQVTVSS
Consider B2, for which the binding result with His6MBP-4C/4S E6 is “binds”.

B3: sdAb 2A04 (VHH)
VHH: B2 VHH with Q3K, V5E, S90T, S99T, K107Q
Take B3: the binding result in test [1] is on record as “binds”.

B4: sdAb 2A03 (VHH)
VHH: QVQLVESGGGLVQAGGSLRLSCAASGRTSSINIMGWYRQPPGKQREMVATIATGGTTNYAESVKGRFTISRDGAKFVYLQLNDLKPEDTAVYYCNAYRYAVGKNQRAWDIWGQGTQVTVSS
In the case of B4, in test [1], the binding result is on record as “binds”.

B5: sdAb C26 (VHH)
VHH: QVQLVESGGGLVQAGGSLRLSCAASGSIYSINAMGWYRQAPGKQRELVAVITSSGSTNYADAVKGRFTISRDNAKNQVYLQMNSLKPEDTAVYYCHAWSPFRGSFSGDALDAWGQGTQVTVSS
Regarding B5, in test [1], the binding result is “binds”.
